Values quoted from earlier work, collected in article PMC3966486.
One block for each substance: values may come before it.

How the values were obtained:
His30 [1] = target: His30 (UniProt position 58, LSHYIHNLSSE); conditions: unbound (free) monomer, not in the hormone-receptor complex
His27 [2] = target: His27 (UniProt position 55, AVVLSHYIHNL); conditions: unbound (free) monomer, not in the hormone-receptor complex
His180 = His180 (UniProt position 208, LRRDSHKIDNY); conditions: unbound (free) monomer, not in the hormone-receptor complex
His30 [3] = target: His30 (UniProt position 58, LSAYIHNLSSE); conditions: unbound (free) monomer, not in the hormone-receptor complex
His27 [4] = target: His27 (UniProt position 55, AVVLSHYIANL); conditions: unbound (free) monomer, not in the hormone-receptor complex
His188 = His188 (UniProt position 212, RCKPDHGYWSA); conditions: unbound (free) monomer, not in the hormone-receptor complex
[5] = target: human prolactin receptor extracellular domain (hPRLr-ECD), wild type (UniProt P16471); conditions: pH
[6] = target: human prolactin receptor extracellular domain (hPRLr-ECD), wild type (UniProt P16471); conditions: pH; remark: listed apart in the source
[7] = target: human prolactin receptor extracellular domain (hPRLr-ECD), wild type (UniProt P16471); conditions: pH; remark: listed apart in the source

human prolactin receptor extracellular domain (hPRLr-ECD), wild type, sequence (P16471 whole entry, the tested form may be a part): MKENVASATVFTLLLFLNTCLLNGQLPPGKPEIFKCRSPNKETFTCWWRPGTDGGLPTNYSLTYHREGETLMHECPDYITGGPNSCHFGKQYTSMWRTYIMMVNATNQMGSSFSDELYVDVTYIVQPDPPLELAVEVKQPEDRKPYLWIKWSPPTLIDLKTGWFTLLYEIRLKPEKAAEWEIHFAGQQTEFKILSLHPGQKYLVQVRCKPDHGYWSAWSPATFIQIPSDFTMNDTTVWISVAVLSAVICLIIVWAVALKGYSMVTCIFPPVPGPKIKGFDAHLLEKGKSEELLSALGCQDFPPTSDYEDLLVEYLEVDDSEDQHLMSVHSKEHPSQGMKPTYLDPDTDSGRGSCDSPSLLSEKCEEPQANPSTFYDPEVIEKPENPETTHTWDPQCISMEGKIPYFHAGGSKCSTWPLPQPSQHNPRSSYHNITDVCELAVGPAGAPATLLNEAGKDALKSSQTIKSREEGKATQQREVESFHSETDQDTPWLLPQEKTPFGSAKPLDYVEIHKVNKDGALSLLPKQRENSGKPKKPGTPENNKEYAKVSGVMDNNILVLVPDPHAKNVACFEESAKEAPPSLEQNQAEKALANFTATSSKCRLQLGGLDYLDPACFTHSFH

Substance: Prolactin (hPRL) (Homo sapiens)
- pKa (His30 [1]): 6.3
- pKa (His27 [2]): 6.7
- pKa (His180): 6.1

Substance: Prolactin (hPRL) H27A (Homo sapiens; H27A)
- pKa (His180): 6.2
- pKa (His30 [3]): 6.5

Substance: Prolactin (hPRL) H30A (Homo sapiens; H30A)
- pKa (His27 [4]): 6.9
- pKa (His180): 6.3

Substance: Prolactin (hPRL) H180A (Homo sapiens; H180A)
- pKa (His30 [1]): 6.7
- pKa (His27 [2]): 6.8

Substance: Prolactin receptor extracellular domain (hPRLr-ECD) (Homo sapiens)
- pKa (His188): 7.7

- pKa, His30 of hPRL H27A [5]: 6.5 pH units
- pKa, His180 of hPRL H27A [5]: 6.2 pH units
Substance: human prolactin H27A H27A

- pKa, His27 of hPRL H30A [6]: 6.9 pH units
- pKa, His180 of hPRL H30A [6]: 6.3 pH units
Substance: human prolactin H30A H30A

- pKa, His27 of hPRL H180A [7]: 6.8 pH units
- pKa, His30 of hPRL H180A [7]: 6.7 pH units
Substance: human prolactin H180A H180A
